Measurements as given in the supplement of paper PMC9112550, “Optimization of the antimicrobial peptide Bac7 by deep mutational scanning” (BMC Biology, 2022).

Each sequence was assayed on Escherichia coli TOP10 (assay: shrunken log2 fold change of peptide-encoding DNA abundance (4.5 h post-induction vs induction); higher = less antimicrobial activity (less host growth inhibition)). Conditions: time post-induction: 4.5 h; library: site-saturation at positions 5, 18, 19, 20.
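Further: peptides expressed intracellularly from a pBAD plasmid library in pooled LB shake-flask culture, induced with 0.3% L-arabinose, DNA abundance read by NGS, three biological replicates, DESeq2 with apeglm shrinkage.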

| Sequence | shrunken log2 fold change |
| --- | --- |
| RRIRVRPPRLPRPRPRPDEQPRP | 0.353 |
| RRIRTRPPRLPRPRPRPDCYPRP | -0.000691 |
| RRIRMRPPRLPRPRPRPRWVPRP | 0.4 |
| RRIRARPPRLPRPRPRPIHPPRP | 0.0444 |
| RRIRTRPPRLPRPRPRPDQPPRP | 0.00486 |
| RRIRWRPPRLPRPRPRPHCAPRP | -0.0143 |
| RRIRPRPPRLPRPRPRPLVRPRP | 0.138 |
| RRIRGRPPRLPRPRPRPNQLPRP | 0.0782 |
| RRIRPRPPRLPRPRPRPMCCPRP | -0.0731 |
| RRIRVRPPRLPRPRPRPNFHPRP | -0.115 |
| RRIRNRPPRLPRPRPRPTIEPRP | 0.0325 |
| RRIRARPPRLPRPRPRPAWRPRP | 0.649 |
| RRIRDRPPRLPRPRPRPYWNPRP | -0.602 |
| RRIRCRPPRLPRPRPRPPTKPRP | 0.108 |
| RRIRFRPPRLPRPRPRPRDSPRP | -0.051 |
| RRIRTRPPRLPRPRPRPMKHPRP | -0.00108 |
| RRIRPRPPRLPRPRPRPRMHPRP | 0.115 |
| RRIRYRPPRLPRPRPRPADQPRP | -0.0819 |
| RRIRHRPPRLPRPRPRPPLTPRP | 0.162 |
| RRIRSRPPRLPRPRPRPVWNPRP | -0.372 |
| RRIRYRPPRLPRPRPRPHLGPRP | 0.0406 |
| RRIRDRPPRLPRPRPRPIPDPRP | -0.0185 |
| RRIRTRPPRLPRPRPRPPPVPRP | 0.652 |
| RRIRCRPPRLPRPRPRPKMTPRP | 0.0216 |
| RRIRSRPPRLPRPRPRPCCVPRP | 0.0729 |

| Sequence | shrunken log2 fold change |
| --- | --- |
| RRIRNRPPRLPRPRPRPPYAPRP | 0.161 |
| RRIRIRPPRLPRPRPRPDTNPRP | -0.73 |
| RRIRLRPPRLPRPRPRPDVKPRP | -0.488 |
| RRIRSRPPRLPRPRPRPHGHPRP | -0.167 |
| RRIRKRPPRLPRPRPRPFWIPRP | -0.414 |
| RRIRARPPRLPRPRPRPTMQPRP | 0.418 |
| RRIRVRPPRLPRPRPRPVNIPRP | -0.584 |
| RRIRQRPPRLPRPRPRPRSMPRP | 0.33 |
| RRIRKRPPRLPRPRPRPHFGPRP | -0.067 |
| RRIRVRPPRLPRPRPRPFTLPRP | -0.104 |
| RRIRIRPPRLPRPRPRPGDWPRP | 0.585 |
| RRIRCRPPRLPRPRPRPPWLPRP | 0.241 |
| RRIRFRPPRLPRPRPRPREFPRP | 0.0793 |
| RRIRTRPPRLPRPRPRPAPFPRP | 0.0263 |
| RRIRIRPPRLPRPRPRPSYIPRP | -1.04 |
| RRIRPRPPRLPRPRPRPQLQPRP | -0.167 |
| RRIRGRPPRLPRPRPRPGAAPRP | 1.43 |
| RRIRHRPPRLPRPRPRPLQIPRP | 0.0781 |
| RRIRERPPRLPRPRPRPGFPPRP | 0.176 |
| RRIRRRPPRLPRPRPRPTSWPRP | 1.52 |
| RRIRRRPPRLPRPRPRPVTLPRP | 0.0854 |
| RRIRYRPPRLPRPRPRPNGFPRP | -0.219 |
| RRIRPRPPRLPRPRPRPIFVPRP | -0.197 |
| RRIRERPPRLPRPRPRPHQCPRP | -0.262 |
| RRIRLRPPRLPRPRPRPNGIPRP | -0.00731 |

| Sequence | shrunken log2 fold change |
| --- | --- |
| RRIRHRPPRLPRPRPRPYAPPRP | -0.737 |
| RRIRVRPPRLPRPRPRPKQAPRP | 0.243 |
| RRIRNRPPRLPRPRPRPHNRPRP | 0.0237 |
| RRIRDRPPRLPRPRPRPEKYPRP | 0.0312 |
| RRIRSRPPRLPRPRPRPQWDPRP | -0.235 |
| RRIRGRPPRLPRPRPRPKCRPRP | 0.299 |
| RRIRPRPPRLPRPRPRPWSMPRP | -0.155 |
| RRIRGRPPRLPRPRPRPTEHPRP | 0.569 |
| RRIRPRPPRLPRPRPRPSLRPRP | 0.0129 |
| RRIRSRPPRLPRPRPRPHLNPRP | -0.158 |
| RRIRMRPPRLPRPRPRPRHPPRP | 0.617 |
| RRIRCRPPRLPRPRPRPRFEPRP | 0.115 |
| RRIRRRPPRLPRPRPRPRIMPRP | 0.0517 |
| RRIRHRPPRLPRPRPRPIYNPRP | -0.898 |
| RRIRARPPRLPRPRPRPIFVPRP | 0.233 |
| RRIRRRPPRLPRPRPRPNHQPRP | -0.0677 |
| RRIRPRPPRLPRPRPRPRTYPRP | -0.196 |
| RRIRVRPPRLPRPRPRPMSTPRP | -0.268 |
| RRIRCRPPRLPRPRPRPDPFPRP | -0.187 |
| RRIRIRPPRLPRPRPRPTPSPRP | 0.0658 |
| RRIRIRPPRLPRPRPRPVRFPRP | -0.16 |
| RRIRMRPPRLPRPRPRPLITPRP | 0.0495 |
| RRIRVRPPRLPRPRPRPNWPPRP | 0.282 |
| RRIRDRPPRLPRPRPRPAVDPRP | -0.0491 |
| RRIRDRPPRLPRPRPRPGSIPRP | 0.0264 |

| Sequence | shrunken log2 fold change |
| --- | --- |
| RRIRIRPPRLPRPRPRPVALPRP | -0.278 |
| RRIRIRPPRLPRPRPRPFCSPRP | -0.426 |
| RRIRVRPPRLPRPRPRPYKAPRP | -0.0443 |
| RRIRLRPPRLPRPRPRPTWGPRP | 0.637 |
| RRIRRRPPRLPRPRPRPKCGPRP | 0.0229 |
| RRIRKRPPRLPRPRPRPWPAPRP | 0.376 |
| RRIRDRPPRLPRPRPRPIYIPRP | -0.288 |
| RRIRRRPPRLPRPRPRPVADPRP | 0.228 |
| RRIRWRPPRLPRPRPRPKHDPRP | 0.0868 |
| RRIRHRPPRLPRPRPRPIHSPRP | 0.0202 |
| RRIRLRPPRLPRPRPRPILNPRP | -0.389 |
| RRIRCRPPRLPRPRPRPAFIPRP | 0.0295 |
| RRIRIRPPRLPRPRPRPIVWPRP | 0.136 |
| RRIRDRPPRLPRPRPRPQIKPRP | 0.0877 |
| RRIRVRPPRLPRPRPRPSNDPRP | -0.244 |
| RRIRKRPPRLPRPRPRPIWKPRP | -0.00277 |
| RRIRWRPPRLPRPRPRPALIPRP | 0.0212 |
| RRIRRRPPRLPRPRPRPHAKPRP | 0.0278 |
| RRIRNRPPRLPRPRPRPHKVPRP | -0.513 |
| RRIRFRPPRLPRPRPRPVPLPRP | -0.118 |
| RRIRCRPPRLPRPRPRPMLNPRP | -0.38 |
| RRIRNRPPRLPRPRPRPRLGPRP | 0.187 |
| RRIRHRPPRLPRPRPRPFLFPRP | -0.408 |
| RRIRARPPRLPRPRPRPNGEPRP | 0.189 |
| RRIRGRPPRLPRPRPRPGMAPRP | 0.877 |

| Sequence | shrunken log2 fold change |
| --- | --- |
| RRIRRRPPRLPRPRPRPESEPRP | 0.0778 |
| RRIRIRPPRLPRPRPRPREDPRP | -0.036 |
| RRIRARPPRLPRPRPRPHWFPRP | 0.0804 |
| RRIRKRPPRLPRPRPRPAPWPRP | 0.82 |
| RRIRMRPPRLPRPRPRPEGHPRP | 2.72 |
| RRIRNRPPRLPRPRPRPSSFPRP | -0.127 |
| RRIRDRPPRLPRPRPRPGHYPRP | 0.0149 |
| RRIRGRPPRLPRPRPRPWPDPRP | 0.194 |
| RRIRCRPPRLPRPRPRPYFHPRP | -0.233 |
| RRIRIRPPRLPRPRPRPIFNPRP | -0.589 |
| RRIRCRPPRLPRPRPRPAPFPRP | 0.0214 |
| RRIRWRPPRLPRPRPRPCTTPRP | -0.183 |
| RRIRERPPRLPRPRPRPFARPRP | 0.102 |
| RRIRWRPPRLPRPRPRPIHFPRP | -0.357 |
| RRIRFRPPRLPRPRPRPAYLPRP | -0.649 |
| RRIRERPPRLPRPRPRPGSNPRP | -0.0638 |
| RRIRRRPPRLPRPRPRPGTRPRP | 0.117 |
| RRIRWRPPRLPRPRPRPDLMPRP | 0.325 |
| RRIRFRPPRLPRPRPRPICTPRP | -0.218 |
| RRIRWRPPRLPRPRPRPCYTPRP | -0.382 |
| RRIRRRPPRLPRPRPRPTGGPRP | 0.296 |
| RRIRTRPPRLPRPRPRPITHPRP | -0.0526 |
| RRIRLRPPRLPRPRPRPHTFPRP | -0.0496 |
| RRIRLRPPRLPRPRPRPKRSPRP | 0.558 |
| RRIRERPPRLPRPRPRPFENPRP | -0.01 |

| Sequence | shrunken log2 fold change |
| --- | --- |
| RRIRKRPPRLPRPRPRPLHYPRP | -0.00227 |
| RRIRFRPPRLPRPRPRPKEGPRP | 0.0546 |
| RRIRARPPRLPRPRPRPLCFPRP | 0.195 |
| RRIRCRPPRLPRPRPRPNKFPRP | -0.472 |
| RRIRPRPPRLPRPRPRPEDNPRP | -0.0402 |
| RRIRPRPPRLPRPRPRPRMIPRP | 0.0799 |
| RRIRLRPPRLPRPRPRPWHWPRP | 0.019 |
| RRIRCRPPRLPRPRPRPWRIPRP | -0.321 |
| RRIRRRPPRLPRPRPRPVTTPRP | 0.48 |
| RRIRNRPPRLPRPRPRPMEGPRP | -0.00992 |
| RRIRVRPPRLPRPRPRPNVIPRP | -0.329 |
| RRIRNRPPRLPRPRPRPQVAPRP | 0.14 |
| RRIRERPPRLPRPRPRPRNHPRP | -0.367 |
| RRIRGRPPRLPRPRPRPTLPPRP | 0.574 |
| RRIRSRPPRLPRPRPRPSWIPRP | -0.363 |
| RRIRKRPPRLPRPRPRPWWHPRP | 0.047 |
| RRIRMRPPRLPRPRPRPGLCPRP | 1.79 |
| RRIRRRPPRLPRPRPRPMYPPRP | -0.197 |
| RRIRDRPPRLPRPRPRPWMWPRP | 0.00708 |
| RRIRMRPPRLPRPRPRPFLGPRP | 0.254 |
| RRIRQRPPRLPRPRPRPSDHPRP | -0.298 |
| RRIRQRPPRLPRPRPRPICVPRP | -0.307 |
| RRIRHRPPRLPRPRPRPQKRPRP | -0.225 |
| RRIRRRPPRLPRPRPRPAHMPRP | 0.405 |
| RRIRYRPPRLPRPRPRPTRWPRP | 0.211 |
